From US20260224620A1 (published 2026)

Target: CD47 WT (YSD CD47) (UniProt Q08722 19-135)
Test: flow cytometry, yeast surface display

- Kd: ~0.33 nM
B1: B6H12 (antibody, V domains shown)
VH: EVQLVESGGDLVKPGGSLKLSCAASGFTFSGYGMSWVRQTPDKRLEWVATITSGGTYTYYPDSVKGRFTISRDNAKNTLYLQIDSLKSEDTAIYFCARSLAGNAMDYWGQGTSVTVSS
VL: DIVMTQSPATLSVTPGDRVSLSCRASQTISDYLHWYQQKSHESPRLLIKFASQSISGIPSRFSGSGSGSDFTLSINSVEPEDVGVYYCQNGHGFPRTFGGGTKLEIK
